One assay deals with LRP6 CR1-3 (human) (UniProt O75581). The assay is described as follows: solid-phase binding assay, immobilised CR protein, anti-RAP detection.
Another assay concerns the target LRP6 CR12 (human) (UniProt O75581). Described as above.
In a further assay the target is LRP6 CR23 (human) (UniProt O75581). Described as above.
A further assay deals with VLDLR CR6-8 (human) (UniProt P98155). The description is as above.
The target in a further assay is VLDLR CR78 (human) (UniProt P98155). The description is as above.
Assay [1] concerns the target full-length LRP1 expressed on CHO-K1 cells.
In assay [2] the target is recombinant mouse VLDLR ectodomain (mouse) (UniProt P98156). Put plainly: solid-phase binding assay, immobilised receptor, streptavidin-HRP detection, EDTA-corrected.

The values below come from patent US8440629B2.

For the substance RAP d3 (ligand), the binding as percent of that for LRP1 CR3-5 in the assay with LRP6 CR1-3 (human), with LRP6 CR12 (human), in the assay with LRP6 CR23 (human) and in the assay with VLDLR CR78 (human) was under 5% in each case. Moreover, in the assay with VLDLR CR6-8 (human), the Kd is over 300 nM.
Take “mRAPc combined with streptavidin-saporin conjugate”: in assay [1], the viable cell number (MTT assay, 48 hours) is 40%.
On to “tag-free RAP d3 peptide linked to maleimide-PEO2-biotin (ligand)”, for which the Kd in assay [2] came out at 1 nM.
